# According to the DeepSol protein solubility set:
# Assay: soluble on expression in E. coli; label from the status in PepcDB or PDB records
row,Sequence,soluble on expression in E. coli
1,MGSDKIHHHHHHMREDFTNEIVTESLNEAGILVEKPSEIRRHFDDLQFDSRKVTKKNTLFVVKGAFKIEYLTASLLDKISGIVTSRKEKINIPNLPHWIVSNSQIALAVLSAEFFGHPEKKLKILGITGTKGKTSSTYMAYSLLDRLTNHQTAMFSTIDTFLGRGIKFKSELTTPESYELFSNMKKALDNGNKYLVMEVSSQSYLKNRVFGIHFKVGAFLNISPDHIGINEHPTFADYLAHKKMLAENSDVFVSNIDDAHGQEFIDHAKSFGAKTVSVSENKKADVNFHIKKADLDESIFYLTEKGNSQEFLLDIPGVFNIYNASVAIAMVREMGFKPEKAKKALAELQIPGRMVKIKTKSHGLIIVDYAHNGQAVTTLLTFLKSQHQGGKIIIVLGSPGDKGEDRRSQFGEVISKFVDVAYLTTDDPGTEDPHQINNQIRKAISNPNVELHEELDRSKAIQEAIKKANINDLVVLAAKGEDAFQKTNHVDVPYLGDKKVAEEFLAEIEKV,not soluble
2,MSEPLDLNQLAQKIKQWGLELGFQQVGITDTDLSESEPKLQAWLDKQYHGEMDWMARHGMLRARPHELLPGTLRVISVRMNYLPANAAFASTLKNPKLGYVSRYALGRDYHKLLRNRLKKLGEMIQQHCVSLNFRPFVDSAPILERPLAEKAGLGWTGKHSLILNREAGSFFFLGELLVDIPLPVDQPVEEGCGKCVACMTICPTGAIVEPYTVDARRCISYLTIELEGAIPEELRPLMGNRIYGCDDCQLICPWNRYSQLTTEEDFSPRKPLHAPELIELFAWSEEKFLKVTEGSAIRRIGHLRWLRNIAVALGNAPWDETILTALESRKGEHPLLDEHIAWAIAQQIERRNACIVEVQLPKKQRLVRVIEKGLPRDA,soluble
3,MNNEAVFSARLSSTQHVGLCRLCNSPLVHTFVDLGMSPPCESFVAADAANDVEPFYPLHAFVCDECFLVQLQEYVAPENIFTEYAYFSSFSDSWVAHAKRYCDMVIERFALGQSSFVVELASNDGYLLQHFLTSNIPMLGIEPAVNVAKVAIGKGIPTLTEFFNEALATDMAARGQKADLIIGNNVLAQVPDINDFVAGMKTLLKPEGVITLEFPHIEKLIAENQFDTIYHEHFSYFSLLTIEKMARRHGLKVFDVEEIPTHGGSLRVFFSHEDIRFPREARVDSLLARELNAGLDKIETYTAFAEAVRQTKRNLLSFLIRLKEMRKSICAYGAPGKGNTLLNYCGIGTDFIDFAVDRNPYKHGRLTPGMHIPIRPVSEIPHMKPDYVLILPWNLKNEIVAQMKDIRNWGGKFIVPIPDISIIDPKELVQ,not soluble
4,MSLEKAARHKQEVDTVQDKKVVNITGQGSTSRFFLPTALIRLRDASAQSIRTVLNQFFDRADDALFELADRAGTDQEQTRYFDAMRELRLRRKSMTVAVLHHVGQAFNDIGKFRPQSTVSSLDSVDEGFLSLLDHAELEQQVAIDNMVTKLRYQYSEALRHLSLRVRHLLPGVTLEDDQMPLCPEVLCGGLAAASKDLDVDIKARLIVLKLFDQLLVTSLGEVYHGANVTLIKEGVLPDSKAVRPVQTARSRQGAPVPPPSVVYREADWYGVGQPQAEVSAATFSQLSALLRQGQPAYGDGQAPASGGQWLQTDALLARLSQVQTAFGNDPGAPLVSLSQQLQPVLQNSSGQSLRPGQVDNDVINLVAMLFEFILDDRHLHSVMKSLLGRLQIPILKVALTDKNFFNRGGHPARKLLNEMALAATGWTEKRPGQRDPLLDKISAVVNRILAEFSTDVSLFNELLDDFNQFSDLDQRRSDLVEQRLRDAEEGRARHEQATADTKELLHEAMDGRLLPEPVQDMLNGPWSHYLHWLALHESTDSEAWQRAKTLTEQLIWTIDPVPLTATTHELLQQAIPQVIEQLRGALEGVAWDGLSVEMVVRDLELVHLDVFQRLVIAPSEAAGNDHAQIDDSQEAPAVRADAVPSDTTNTSADVSHPAPALPVAADDPKEAVVARVPEPTRAQPVVAEEWLAKADGLRVGCWLELNRDGSQIRCKLAAFIRAVDKYIFVNRSGAKVAEYRRNELAEMMAQGHIEILDDGLIFDRALESIIDNLRTSRREGHHHHHH,not soluble
5,MGSDKIHHHHHHMKILVYGINYSPELTGIGKYTGEMVAWMAQEGHEVRVITAPPYYPQWKVGERYSAWRYRREEGEATVWRCPLYVPKQPSTLKRLLHLGSFALSSFFPLMAQRRWKPDRIIGVVPTLFCTPGMRLLATLSGARTVLHIQDYEVDAMLGLGMAGKGKRGSVARLATAFERSALRNVDNVSTISRSMMNKAREKGVAAEKILFFPNWSEVARFQDVNDADVTALRQQLGLPEGKKIVLYSGNIGEKQGLEKVIDAAERLRDRPLIFAIVGQGGGKARLENMARERGLANIKFLPLQPYDALPALLKMGDCHLVVQKRGAADAVLPSKLTNILAVGGNAVITAEPHTELGQLCARYPGIAVCVEPESTDALVNGISQALAMPKNNTTAREYAERTLNKENVLRQFIADIRG,not soluble
6,GSMPHIKGHEGDPCLRSSDCIDGFCCARHFWTKICKPVLHQGEVCTKQRKKGSHGLEIFQRCDCAKGLSCKVWKDATYSSKARLHVCQKI,soluble
7,MGSDKIHHHHHHMGIGIIIASHGKFAEGIHQSGSMIFGEQEKVQVVTFMPNEGPDDLYGHFNNAIQQFDADDEILVLADLWSGSPFNQASRVAGENPDRKMAIITGLNLPMLIQAYTERLMDAGAGVEQVAANIIKESKDGIKALPEDLNPVEETAATEKVVNALQGAIPAGTVIGDGKLKINLARVDTRLLHGQVATAWTPASKADRIIVASDEVAQDDLRKQLIKQAAPGGVKANVVPISKLIEASKDPRFGNTHALILFQTPQDALRAVEGGVEINELNVGSMAHSTGKTMVNNVLSMDKEDVATFEKLRDLGVTFDVRKVPNDSKKNLFELIQKTNIK,not soluble
8,AIAGSVNSRGHKAEAQVVMMGLDSAGKTTLLYKLKGHQLVETLPTVGFNVEPLKAPGHVSLTLWDVGGQAPLRASWKDYLEGTDILVYVLDSTDEARLPESAAELTEVLNDPNMAGVPFLVLANKQEAPDALPLLKIRNRLSLERFQDHCWELRGCSALTGEGLPEALQSLWSLLKSRSCMCLQARAHGAERGDSKRS,soluble
9,VVIFFGVILGILIVEYGQKRSFSSWLVEKMFAYRKYKLSKKVDNYKGVETQRNRNIPYHLDNPEEIVGFSTQEYDVNGMQVFIINDQKQSHQPVIYYLYGSVYLRRPEKLHFKTVKHLIQLTNAKVVFPNFPKVPYATYQDVYPKLVEAYQQFCLSNGPSQVSVIGDSSGGGMALAFAKYIRDTKTAPQPKQLILISPWLDVSFKNQAYKDFEAEEAYLDARRLRDIGELWAGGQGNMQLPYVSPLYGDYEDLPEITTFVGTKEIFYPDIMSLHDQLTRQRIANQLIIAEKMIHAYVIFPIREAKQARKQIAELVLKTVEHT,not soluble
10,MGSDKIHHHHHHMNDFTTEILKTLANKGDLNELFRVHLEKAVNTLLKTELTAFLDYEKYDRIGFNTGNSRNGSYDRTVKTEYGELHLQIPRDRNGEFKQQTVPAYRRTNDTLEETVIHLFRKGITMSEIADLIEKMYGHHYTPQTMSNITKSFTEEVTAFKGRELHDRYAAIYMDATYIPLKRKTVAKEAIHIAVGIRPDGSKEVLSYAIAPTESITIWEEILLDLQERGLKNVLLFITDGLKGMVGAISRFYPKARFQHCCVHVSRNISHKVRVDDRKEVCDDFKMVYQTSSKKVALEARGAFAEKWKTSYPKVVESILSNDHLLTFYDFPLAIRKSIYSTNLIESFNKQIKKYSHRKEQFQNEESMERFLVSSFDTYNQKFLGRSHKGFQQAEGELEQMLSQLIEN,not soluble
11,MKLDIKKDLKNIAWHCTMCGGCCDSPSVSKKDVANIAGFLKIPFDEVVKKYLVNFDGMTGRLKTSKEKCIFLDENNKCKIYRVRPIICRLRPYSVQIKDQNLVLTYDGWFLENCKGLFMGDLDPDEEYYKHAETVLKYLGEEENTPEEFFEKAKKRLKKSKKLEHHHHHH,soluble
12,MKYPPSLVSLIRELSRLPGIGPKSAQRLAFHLFEQPREDIERLASALLEAKRDLHVCPICFNITDAEKCDVCADPSRDQRTICVVEEPGDVIALERSGEYRGLYHVLHGVLSPMNGVGPDKLHIKPLLPRVGQGMEVILATGTTVEGDATALYLQRLLEPLGAAISRIAYGVPVGGSLEYTDEVTLGRALTGRQTVSKPQPPQRPGDEDGADGAAVPASRLEHHHHHH,soluble
13,GPGSMSRQQQAQELQKQWETDPRWKGIKRAFTAEDVVRLRGSIQQEHTLAKRGAEKLWTLINNEPFVNALGALTGNQAMQQVKAGLKAIYLSGWQVAGDANVAGEMYPDQSLYPANSVPLVVKRINNTLTRADQIQWSEGKNPGDEGYVDFFAPIVADAEAGFGGVLNAFELMKAMIEAGASGVHFEDQLASVKKCGHMGGKVLVPTREAVAKLTAARLAADVMGTPTVLVARTDAEAADLITSDIDDNDKPYLTGERTVEGFFRTKPGLEQAISRGLAYAPYADLIWCETGKPDLEYAKKFAEAIHKQFPGKLLSYNCSPSFNWKKNLDDATIAKFQKELGAMGYKFQFITLAGFHALNYSMFNLAHGYARTQMSAFVELQQAEFAAADKGFTAVKHQREVGTGYFDAVTQTVEREASTTALHGSTEDEQFFDGQKVA,soluble
14,MTMEQLQTPPVVVEVCHTLDKKQLNAISKQVYETTLEAIERARRDSEVDSDLIYTRVGVRRFLDNCSEAYLDELIAKGLPTGRRLSDRKTCWSKHQLRSWLLENE,not soluble
15,MSTFSLLRLPQKTLKNVILQMGHIELICTSLLSNKTKHFIREFCIFKASRFSIELNQSVQFKMFNNGRWSEYSFKNGMICITSFGIIQITMTFRTPQFNAGSWFNHFLCVLSPSKIESVTVTDAFDELRFQLVKKFLEKIQFMVLWIRTTSATSHMVRLFSEVLPVDQFWLSQDDRLNSSQFSALRPVLSKELETIFIDNRMPLNDLLITCSTAIHIIKSPLTDKEINVFLKHWMTGLKPELEHIYIEKSGVFNQTQLLDGINHDAPTDRKFKMYGNDAFRGIDLHLGQGIKATLVYENDFFHSKIHIASHNSKYISFE,not soluble
16,MSQSNHPGGKDAGSIPRVLISADRSSSGKTTISMGLMAALVSRGYKVQPFKVALDYIDPSYHTEITGRFCRNLDGYLMDEHGILDVYTHACETGGGADIAIIEGVRGLFEGFESLSDVGSTAQIAKILKCPVVFVINARSITRSAAALIGGYKNFDPDVEIAGVILNNIGGRRHAQKAKEAIEHYTGVPVLGIIPRDPSMQISMRHLGLMPALEGRRRFGDGGFENRLHGIEEIINKGIDVDRFLGIAESAKPLTALENSIFSPAVNENSQKPKIGVALDEAFNFYYRDNIDLLEIAGAEIVYFSPVNDPGLPEVDGLYIGGGYPELFAAELEANETMRKSIKEASAAGMPIYAECGGLMYLTEKISTGVPGKGTYHDASMPESTYSMVGALPGHTIMGQTRVVSYNIGTLARDCPIGKKGNSFKGHEFHHSEILEIPDDAEFAIALTRGTGIRGDRDGLIVNNTIGSYAHLHGVAYRELAGSLVEAARKFRDSRVSSLEHHHHHH,soluble
17,SLQPYEKYLKLNSQKLRADQTDTERKLWQRINRDQLLGFRFNRQKPLLSYIVDFYCAKTKLIIELDGSQHYKPDYQEKDALRDAELNSLGFTVMRFSNDEVMREIEAVVEQIYLFLENVRTD,not soluble
18,GSDIGQVIHPDDFDKAAADDYVLHEDGEKIYFLIKSKTDEYCFTNLALVHLDGESAVSSKRVLYRYPYAHYPIRHVMFETAGTVDLDVEIKFEIGGKHYSIDVDKKQLEHVKDLYKALLAIAEKQYEGQKMLEFANSSLNHSVTILGGLRQGDMNVPQTFKDLSQESFDWLQGHYYKWNQKDFGSFYEKYINN,soluble
19,MRDNASLAHTQWNCKYHIVFAPKYRRQVIYGKIKKDIGQILRKLCEMKGVEIIEASLCPDHIHMLVSIPPKISVSSFMGYLKGKSSLMIFNRHANLKYKYGNRHFWCRGYYVDTVGRNRKAIEQYIRRQLQEDIASDQISLNEYIDPFTGERVNKSKK,not soluble
20,MCLGVPAQIAEIHDSTRATVSMSGVSRMVSTDLLAETIDVGDWVLIHVGFALSKIDEDEAAVTLQQIKQLGGFDEELQSFESSEI,not soluble
